Literature values as cited in paper PMC5668312.

What was measured:
[1] = target: CHMP1B (Homo sapiens) (UniProt Q7LBR1)
[2] = target: Vps2 (Saccharomyces cerevisiae) (UniProt P36108)
Vps2 (Saccharomyces cerevisiae), sequence (P36108 whole entry): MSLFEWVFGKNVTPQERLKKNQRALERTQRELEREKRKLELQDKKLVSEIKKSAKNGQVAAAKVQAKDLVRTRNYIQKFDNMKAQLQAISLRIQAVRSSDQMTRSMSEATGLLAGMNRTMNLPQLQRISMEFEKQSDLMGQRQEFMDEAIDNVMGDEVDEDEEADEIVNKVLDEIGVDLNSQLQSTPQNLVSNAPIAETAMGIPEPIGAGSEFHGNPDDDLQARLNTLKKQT

spastin MIT, sequence (Q9UBP0 117-198): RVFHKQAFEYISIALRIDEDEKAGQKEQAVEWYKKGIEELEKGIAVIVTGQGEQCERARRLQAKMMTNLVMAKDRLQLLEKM
CHMP1B (Homo sapiens), sequence (Q7LBR1 whole entry): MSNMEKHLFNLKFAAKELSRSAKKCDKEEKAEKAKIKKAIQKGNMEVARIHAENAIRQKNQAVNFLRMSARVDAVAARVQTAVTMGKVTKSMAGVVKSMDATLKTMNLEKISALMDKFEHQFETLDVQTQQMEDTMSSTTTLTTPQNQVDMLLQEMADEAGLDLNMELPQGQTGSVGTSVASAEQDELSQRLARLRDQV
Vps4 MIT, sequence (P52917 1-83): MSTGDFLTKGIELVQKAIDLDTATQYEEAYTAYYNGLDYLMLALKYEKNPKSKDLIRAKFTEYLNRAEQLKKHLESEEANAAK

Kd [1] | Kd [2] | Substance
12 µM |  | spastin MIT (from UniProt Q9UBP0)
 | 30 µM | Vps4 MIT (from UniProt P52917)
